Values quoted from earlier work in publication doi:10.1101/2024.09.05.611512.

Columns and labels:
[1] = target: S100A10 (Homo sapiens) (UniProt P60903)
[2] = target: calpain 1 & 2 (Homo sapiens) (UniProt P07384)
Chain of UniProt P07384 (P07384 2-714): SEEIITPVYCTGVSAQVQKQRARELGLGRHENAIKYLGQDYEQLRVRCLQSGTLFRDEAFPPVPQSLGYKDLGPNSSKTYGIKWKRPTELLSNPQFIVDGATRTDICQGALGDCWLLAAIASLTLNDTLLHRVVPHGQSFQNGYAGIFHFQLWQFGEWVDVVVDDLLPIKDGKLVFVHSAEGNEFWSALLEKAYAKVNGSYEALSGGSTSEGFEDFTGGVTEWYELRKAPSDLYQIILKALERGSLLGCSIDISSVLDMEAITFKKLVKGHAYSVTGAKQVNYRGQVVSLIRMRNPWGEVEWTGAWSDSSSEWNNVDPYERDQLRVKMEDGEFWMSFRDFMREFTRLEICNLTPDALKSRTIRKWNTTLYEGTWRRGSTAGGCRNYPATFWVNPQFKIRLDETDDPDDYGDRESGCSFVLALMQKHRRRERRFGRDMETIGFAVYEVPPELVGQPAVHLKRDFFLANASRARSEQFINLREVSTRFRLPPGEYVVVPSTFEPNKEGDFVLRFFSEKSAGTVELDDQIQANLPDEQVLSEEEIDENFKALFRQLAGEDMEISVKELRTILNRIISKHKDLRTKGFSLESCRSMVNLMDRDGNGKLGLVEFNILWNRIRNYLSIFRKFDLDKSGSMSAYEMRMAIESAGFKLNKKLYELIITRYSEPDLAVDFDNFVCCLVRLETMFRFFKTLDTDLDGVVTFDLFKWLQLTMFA

Chain of UniProt P60903 (P60903 whole entry): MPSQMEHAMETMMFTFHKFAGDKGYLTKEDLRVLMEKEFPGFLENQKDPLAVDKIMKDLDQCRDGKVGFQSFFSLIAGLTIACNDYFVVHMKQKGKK

| Substance | Kd [1] [µM] | Ki [2] [µM] |
| --- | --- | --- |
| annexin A2 first 10-12 residues (from UniProt P07355) | 0.013 |  |
| calpastatin domain I (from UniProt P20810) |  | 0.015 |
